In data set [1] the test system is endothelial cells. As to conditions: cells stimulated with sepsis-related mediators incl. thrombin; ref David et al, 2011; cited from earlier work. The text has this:
Thrombin is also a metastasis-associated factor that can promote endothelial adhesion and diapedesis of TCs (Nierodzik & Karpatkin, [2006]).

Data set [2] has as its system Tie2− tumor cells (LM2-4luc). Briefly: MTS cell viability assay, tumor cells. Type of data set: cell-based, human. As to conditions: 48 h MTS; Supplementary Fig S2 (VT 0.1 to 1000 ng/mL). Here is the method: TCs were cultured in DMEM High Glucose basal media supplemented with 5% FBS and grown humidified incubators at 37 °C, 21%O2 and 5%CO2 unless otherwise specified. LM2-4 luc is a highly metastatically aggressive variant of the human breast carcinoma MDA-MB-231 cell line (derived through serial in vivo selection of lung metastases from orthotopic implantations in immunodeficient mice) that has been transfected with a firefly luciferase vector (Man et al, 2007; Ebos et al, 2009). HT29luc is a human colon carcinoma cell line also transfected with the luciferase gene (Hackl et al, 2013). SN12luc refers to a luciferase-tagged and highly metastatic clone of a human renal cell carcinoma cell line, SN12-PM6-L1luc (Jedeszko et al, 2015). MeWo is a human melanoma cell line (Ebos et al, 2009).
2. Endothelial cells (ECs) […]
5,000 LM2-4luc or HMVEC-LBl cells, in 100uL of their regular growth media, were seeded per well on a 96-well plate. […] Absorbances were read at 490nm and background-corrected with reference 560nm readings or acellular treatment-only […]
4. […] Protein concentrations in TC-CM vs. control media were measured using: a Quantikine ELISA kit (R&D Systems DVE00) for human VEGF; a FlowCytomix Multiplex kit (eBioscience BMS810FF) for human IL-6 and IL-8; and a BCA protein assay kit (Thermo Scientific) for total protein.
Background: Tetrazolium assays rely on reduction of a dye to a coloured formazan, in cell work by metabolically active cells.

The target of data set [3] is T1, mouse Tie2-Fc (Fc-conjugated extracellular domain of Tie2) (mouse, UniProt Q02858 23-746).
T1 construct: Tie2 receptor tyrosine kinase, mouse, extracellular domain; the supplementary Materials and Methods may tell them; also called mTie2-Fc; mTie2; source: purified
Briefly: pull-down; purified human or mouse Tie2-Fc coupled to protein A sepharose beads; input ligand (rhAng1 or VT) incubated with the beads; bound and unbound fractions compared; beads only as control. As to conditions: both partners purified.

Data set [4] deals with T2, human Tie2-Fc (Fc-conjugated extracellular domain of Tie2) (human, UniProt Q02763 23-748).
T2 construct: Tie2 receptor tyrosine kinase, human, extracellular domain; the supplementary Materials and Methods may tell them; also called hTie2-Fc; hTie2; source: purified
The data set is described as above. The note with it: both partners purified.

In data set [5] the target is T3, mouse Tie2-Fc (Fc-conjugated extracellular domain of Tie2) (mouse, UniProt Q02858 23-746).
T3 chain: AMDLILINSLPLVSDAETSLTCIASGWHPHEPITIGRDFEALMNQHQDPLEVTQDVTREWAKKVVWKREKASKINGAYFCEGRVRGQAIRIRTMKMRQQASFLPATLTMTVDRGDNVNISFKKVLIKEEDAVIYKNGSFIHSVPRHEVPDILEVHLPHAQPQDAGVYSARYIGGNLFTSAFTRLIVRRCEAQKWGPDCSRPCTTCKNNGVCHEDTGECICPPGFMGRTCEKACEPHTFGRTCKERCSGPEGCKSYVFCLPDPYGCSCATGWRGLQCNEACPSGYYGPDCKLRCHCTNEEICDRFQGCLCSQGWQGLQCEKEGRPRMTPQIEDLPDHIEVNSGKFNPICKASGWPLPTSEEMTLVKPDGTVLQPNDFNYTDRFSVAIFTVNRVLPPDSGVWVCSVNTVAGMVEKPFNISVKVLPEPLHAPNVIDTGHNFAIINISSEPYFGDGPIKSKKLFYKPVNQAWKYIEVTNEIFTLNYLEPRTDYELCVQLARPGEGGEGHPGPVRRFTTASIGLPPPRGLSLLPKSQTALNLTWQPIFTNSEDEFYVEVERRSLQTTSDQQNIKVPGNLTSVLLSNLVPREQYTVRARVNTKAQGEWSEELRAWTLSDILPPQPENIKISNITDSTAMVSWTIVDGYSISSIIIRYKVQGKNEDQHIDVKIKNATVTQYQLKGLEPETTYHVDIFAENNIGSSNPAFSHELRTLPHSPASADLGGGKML
Briefly: SPR. (In SPR one partner is held on a chip, and binding of the other changes the refractive index at the surface.)

With “CHHHRHSF [Vasculotide, 4-armed maleimide-functionalized polyethylene glycol (PEG) backbone to link together four cysteine-capped T7 peptides, that is, CHHHRHSF]”, in data set [1], the endothelial barrier integrity result was “preserve endothelial barrier integrity”. For the same molecule, in data set [2], the “cytotoxic effect on TCs / viability” value was “no direct cytotoxic effect”.

B1: recombinant human Ang1 (rhAng1) (ligand, UniProt Q15389 16-498, looked up)
chain: HIGCSNQRRSPENSGRRYNRIQHGQCAYTFILPEHDGNCRESTTDQYNTNALQRDAPHVEPDFSSQKLQHLEHVMENYTQWLQKLENYIVENMKSEMAQIQQNAVQNHTATMLEIGTSLLSQTAEQTRKLTDVETQVLNQTSRLEIQLLENSLSTYKLEKQLLQQTNEILKIHEKNSLLEHKILEMEGKHKEELDTLKEEKENLQGLVTRQTYIIQELEKQLNRATTNNSVLQKQQLELMDTVHNLVNLCTKEGVLLKGGKREEEKPFRDCADVYQAGFNKSGIYTIYINNMPEPKKVFCNMDVNGGGWTVIQHREDGSLDFQRGWKEYKMGFGNPSGEYWLGNEFIFAITSQRQYMLRIELMDWEGNRAYSQYDRFHIGNEKQNYRLYLKGHTGTAGKQSSLILHGADFSTKDADNDNCMCKCALMLTGGWWFDACGPSNLNGMFYTAGQNHGKLNGIKWHYFKGPSYSLRSTTMMIRPLDF
notes: angiopoietin-1, human, recombinant; also called angiopoietin-1; source: bought: R&D Systems (named for the Boyden chamber experiments)
For orientation: Kd means a measure of binding affinity in units of concentration. Consider B1, for which the binding result in data set [3] and in data set [4] was “binds” in each case. The dissociation constant Kd in data set [5] stood at 0.237 nM.

The record behind these values is paper PMC4459817, “Vasculotide reduces endothelial permeability and tumor cell extravasation in the absence of binding to or agonistic activation of Tie2” (EMBO Molecular Medicine, 2015).
